Laboratory results taken from paper PMC7049697.
Positions count from the first letter of the chain named.

Key:
Rap1-DBD = biological target: T1, Rap1-DBD (Saccharomyces cerevisiae, UniProt P11938 358-601); experiment: EMSA
T1 sequence: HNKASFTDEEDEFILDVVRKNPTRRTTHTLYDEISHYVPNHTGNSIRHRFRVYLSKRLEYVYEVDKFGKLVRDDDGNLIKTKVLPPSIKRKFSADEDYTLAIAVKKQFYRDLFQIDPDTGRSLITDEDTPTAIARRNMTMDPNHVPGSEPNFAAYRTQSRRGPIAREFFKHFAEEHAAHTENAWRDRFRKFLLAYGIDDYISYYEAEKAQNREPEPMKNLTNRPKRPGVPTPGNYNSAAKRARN

Rap1-DBD P520L = biological target: T2, Rap1-DBD P520L (Saccharomyces cerevisiae, UniProt P11938 358-601, P520L); experiment: EMSA
T2 sequence: T1 sequence with P163L

B1: 21 bp telomeric Rap1 site dsDNA (dsDNA)
DNA 1: CCGCACACCCACACACCAGTG
DNA 2: CACTGGTGTGTGGGTGTGCGG
Rap1-DBD
  binding result: binds
Rap1-DBD P520L
  binding result: binds
